Source: article doi:10.1101/2022.01.30.478305 (bioRxiv, 2022)

Biological target: SARS-CoV-2 RBD-his (SARS-CoV-2, UniProt P0DTC2)
Assay: ELISA

B1: 16L9 (antibody, V domains shown)
VH: EVQLVESGGGLIQPGGSLRLSCAASGFTVSSNYMSWVRQAPGKGLEWVSVIYSGGSTYYADSVKGRFTISRDNSENTLYLQMNSLRAEDTAVYYCARGEIQPYYYYGMDVWGQGTTVTVSS
VL: QSVLTQPPSASGSPGQSVTISCTGTSSDFGGYNSVSWYQQHPGKAPKLMIYEVSKRPSGVPDRFSGSKSGNTASLTVSGLQAEDEADYYCSSYAGSNNFDVFGTGTKVTVL
B1: binds.
